How the values were obtained:
[1] = target: T1, human SIRPα, endogenous, on THP-1 cells (human, UniProt P78324 31-504); test: flow cytometry competition on THP-1 cells against CD47 tetramers
T1 construct: whole, on cells; also called SIRP-alpha

[2] = target: T1, human SIRPα, endogenous, on THP-1 cells; test: flow cytometry competition on THP-1 cells against 100 nM fluorescent CD47/streptavidin tetramers

| IC50 [1] [nM] | IC50 [2] [nM] | Binder |
| --- | --- | --- |
| ~35 |  | KWAR23 scFv LH (N-terminal light chain), monomer expressed in E. coli (scFv, also called LH scFv; LH monomer) scFv: QIVLTQSPAIMSASPGEKVTLTCSASSSVSSSYLYWYQQKPGSSPKLWIYSTSNLASGVPARFSGSGSGTSYSLTISSMEAEDAASYFCHQWSSYPRTFGAGTKLELKGTTAASGSSGGSSSGAEVQLQQSGAELVKPGASVKLSCTASGFNIKDYYIHWVQQRTEQGLEWIGRIDPEDGETKYAPKFQDKATITADTSSNTAYLHLSSLTSEDTAVYYCARWGAYWGQGTLVTVS |
| ~35 |  | KWAR23 scFv HL (N-terminal heavy chain), monomer expressed in E. coli (scFv, also called HL scFv; HL monomer) scFv: EVQLQQSGAELVKPGASVKLSCTASGFNIKDYYIHWVQQRTEQGLEWIGRIDPEDGETKYAPKFQDKATITADTSSNTAYLHLSSLTSEDTAVYYCARWGAYWGQGTLVTVSGGGGSGGGGSGGGGSQIVLTQSPAIMSASPGEKVTLTCSASSSVSSSYLYWYQQKPGSSPKLWIYSTSNLASGVPARFSGSGSGTSYSLTISSMEAEDAASYFCHQWSSYPRTFGAGTKLELK |
|  | ~0.27 | KWAR23, monoclonal CD47-blocking anti-human SIRPα antibody (purified from hybridoma supernatant) (antibody, V domains shown, Mouse hybridoma antibody purified by protein G chromatography; also called KWAR23 antibody; intact KWAR23) VH: EVQLQQSGAELVKPGASVKLSCTASGFNIKDYYIHWVQQRTEQGLEWIGRIDPEDGETKYAPKFQDKATITADTSSNTAYLHLSSLTSEDTAVYYCARWGAYWGQGTLVTVSS VL: QIVLTQSPAIMSASPGEKVTLTCSASSSVSSSYLYWYQQKPGSSPKLWIYSTSNLASGVPARFSGSGSGTSYSLTISSMEAEDAASYFCHQWSSYPRTFGAGTKLELK |

Reference: patent US20180319883A1 (Stanford University, published 2018)
